Assay results as given in paper PMC4653032.

Legend:
Settings in all cases: glycan lost; control: wild-type CD133
[1] = FLAG IP, PY828 blot, HEK293T with Src
[2] = immunofluorescence with ER dye, HEK293T
[3] = anti-CD133 western blot, HEK293T lysates
[4] = surface flow cytometry, HEK293T and HepG2

B1: CD133 (prominin-1): N548Q (protein)
parent chain: MALVLGSLLLLGLCGNSFSGGQPSSTDAPKAWNYELPATNYETQDSHKAGPIGILFELVHIFLYVVQPRDFPEDTLRKFLQKAYESKIDYDKPETVILGLKIVYYEAGIILCCVLGLLFIILMPLVGYFFCMCRCCNKCGGEMHQRQKENGPFLRKCFAISLLVICIIISIGIFYGFVANHQVRTRIKRSRKLADSNFKDLRTLLNETPEQIKYILAQYNTTKDKAFTDLNSINSVLGGGILDRLRPNIIPVLDEIKSMATAIKETKEALENMNSTLKSLHQQSTQLSSSLTSVKTSLRSSLNDPLCLVHPSSETCNSIRLSLSQLNSNPELRQLPPVDAELDNVNNVLRTDLDGLVQQGYQSLNDIPDRVQRQTTTVVAGIKRVLNSIGSDIDNVTQRLPIQDILSAFSVYVNNTESYIHRNLPTLEEYDSYWWLGGLVICSLLTLIVIFYYLGLLCGVCGYDRHATPTTRGCVSNTGGVFLMVGVGLSFLFCWILMIIVVLTFVFGANVEKLICEPYTSKELFRVLDTPYLLNEDWEYYLSGKLFNKSKMKLTFEQVYSDCKKNRGTYGTLHLQNSFNISEHLNINEHTGSISSELESLKVNLNIFLLGAAGRKNLQDFAACGIDRMNYDSYLAQTGKSPAGVNLLSFAYDLEAKANSLPPGNLRNSLKRDAQTIKTIHQQRVLPIEQSLSTLYQSVKILQRTGNGLLERVTRILASLDFAQNFITNNTSSVIIEETKKYGRTIIGYFEHYLQWIEFSISEKVASCKPVATALDTAVDVFLCSYIIDPLNLFWFGIGKATVFLLPALIFAVKLAKYYRRMDSEDVYDDVETIPMKNMENGNNGYHKDHVYGIHNPVMTSPSQH
no change: other: Y828 phosphorylation [1] | localisation_or_trafficking [2] | expression_or_secretion [3] | localisation_or_trafficking [4]

B2: CD133 (prominin-1): N729Q (protein)
parent chain: MALVLGSLLLLGLCGNSFSGGQPSSTDAPKAWNYELPATNYETQDSHKAGPIGILFELVHIFLYVVQPRDFPEDTLRKFLQKAYESKIDYDKPETVILGLKIVYYEAGIILCCVLGLLFIILMPLVGYFFCMCRCCNKCGGEMHQRQKENGPFLRKCFAISLLVICIIISIGIFYGFVANHQVRTRIKRSRKLADSNFKDLRTLLNETPEQIKYILAQYNTTKDKAFTDLNSINSVLGGGILDRLRPNIIPVLDEIKSMATAIKETKEALENMNSTLKSLHQQSTQLSSSLTSVKTSLRSSLNDPLCLVHPSSETCNSIRLSLSQLNSNPELRQLPPVDAELDNVNNVLRTDLDGLVQQGYQSLNDIPDRVQRQTTTVVAGIKRVLNSIGSDIDNVTQRLPIQDILSAFSVYVNNTESYIHRNLPTLEEYDSYWWLGGLVICSLLTLIVIFYYLGLLCGVCGYDRHATPTTRGCVSNTGGVFLMVGVGLSFLFCWILMIIVVLTFVFGANVEKLICEPYTSKELFRVLDTPYLLNEDWEYYLSGKLFNKSKMKLTFEQVYSDCKKNRGTYGTLHLQNSFNISEHLNINEHTGSISSELESLKVNLNIFLLGAAGRKNLQDFAACGIDRMNYDSYLAQTGKSPAGVNLLSFAYDLEAKANSLPPGNLRNSLKRDAQTIKTIHQQRVLPIEQSLSTLYQSVKILQRTGNGLLERVTRILASLDFAQNFITNNTSSVIIEETKKYGRTIIGYFEHYLQWIEFSISEKVASCKPVATALDTAVDVFLCSYIIDPLNLFWFGIGKATVFLLPALIFAVKLAKYYRRMDSEDVYDDVETIPMKNMENGNNGYHKDHVYGIHNPVMTSPSQH
no change: localisation_or_trafficking [2] | expression_or_secretion [3] | localisation_or_trafficking [4]

B3: CD133 (prominin-1): N730Q (protein)
parent chain: MALVLGSLLLLGLCGNSFSGGQPSSTDAPKAWNYELPATNYETQDSHKAGPIGILFELVHIFLYVVQPRDFPEDTLRKFLQKAYESKIDYDKPETVILGLKIVYYEAGIILCCVLGLLFIILMPLVGYFFCMCRCCNKCGGEMHQRQKENGPFLRKCFAISLLVICIIISIGIFYGFVANHQVRTRIKRSRKLADSNFKDLRTLLNETPEQIKYILAQYNTTKDKAFTDLNSINSVLGGGILDRLRPNIIPVLDEIKSMATAIKETKEALENMNSTLKSLHQQSTQLSSSLTSVKTSLRSSLNDPLCLVHPSSETCNSIRLSLSQLNSNPELRQLPPVDAELDNVNNVLRTDLDGLVQQGYQSLNDIPDRVQRQTTTVVAGIKRVLNSIGSDIDNVTQRLPIQDILSAFSVYVNNTESYIHRNLPTLEEYDSYWWLGGLVICSLLTLIVIFYYLGLLCGVCGYDRHATPTTRGCVSNTGGVFLMVGVGLSFLFCWILMIIVVLTFVFGANVEKLICEPYTSKELFRVLDTPYLLNEDWEYYLSGKLFNKSKMKLTFEQVYSDCKKNRGTYGTLHLQNSFNISEHLNINEHTGSISSELESLKVNLNIFLLGAAGRKNLQDFAACGIDRMNYDSYLAQTGKSPAGVNLLSFAYDLEAKANSLPPGNLRNSLKRDAQTIKTIHQQRVLPIEQSLSTLYQSVKILQRTGNGLLERVTRILASLDFAQNFITNNTSSVIIEETKKYGRTIIGYFEHYLQWIEFSISEKVASCKPVATALDTAVDVFLCSYIIDPLNLFWFGIGKATVFLLPALIFAVKLAKYYRRMDSEDVYDDVETIPMKNMENGNNGYHKDHVYGIHNPVMTSPSQH
no change: localisation_or_trafficking [2] | expression_or_secretion [3] | localisation_or_trafficking [4]
